Target: TgSPT1 Δ158 (Toxoplasma gondii serine palmitoyltransferase 1 with an N-terminal deletion of 158 amino acids) (Toxoplasma gondii)
Test: SAXS (small-angle X-ray scattering); size exclusion chromatography HPLC mode, Beamline B21 Diamond Light Source; sample concentrated to ~5 mg/ml; Porod volume 150387 Å^3 equivalent to 94 kDa; ab initio envelope compared with a homodimeric homology model

Substance: TgSPT1 Δ158 (Toxoplasma gondii serine palmitoyltransferase 1 with an N-terminal deletion of 158 amino acids) (enzyme)
- stoichiometry N: 2
